T1: Dazl(RRM) (Mus musculus, UniProt Q64368 32-117)
T1 sequence: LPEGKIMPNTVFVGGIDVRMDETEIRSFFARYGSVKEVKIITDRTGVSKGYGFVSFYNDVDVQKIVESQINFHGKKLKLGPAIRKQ

T2: RbFox(RRM) (UniProt Q9NWB1 109-208)
T2 sequence: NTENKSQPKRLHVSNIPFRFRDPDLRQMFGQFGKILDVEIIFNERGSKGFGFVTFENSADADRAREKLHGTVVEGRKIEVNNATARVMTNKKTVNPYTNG


Assays:
Dazl(RRM) = target: T1, Dazl(RRM); experiment: fluorescence anisotropy
RbFox(RRM) = target: T2, RbFox(RRM); experiment: fluorescence anisotropy

Row | Binder | binding result (Dazl(RRM)) | binding result (RbFox(RRM))
1 | UUGUUCUUU (ssRNA) [Dazl cognate RNA] | binds | –
2 | UCCUGCAUGUUUA (ssRNA) [RbFox cognate RNA] | – | binds

— PMC8299502
